Reference: PMC8500459, “Novel Homologs of Isopentenyl Phosphate Kinase Reveal Class‐Wide Substrate Flexibility” (Chemcatchem, 2021)

Assays:
[1] = substrate: CC(C)=CCOP(=O)(O)O; experiment: purified protein; settings: ATP 1 mM (2 mM in methods), 25 mM Tris pH 7.8, 5 mM MgCl2, 37 °C
[2] = substrate: C=C(C)CCOP(=O)(O)O; experiment: PK-LDH coupled assay, NADH A340; assay type: biochemical, Thermococcus paralvinellae; settings: ATP 1 mM (2 mM in methods), 25 mM Tris pH 7.8, 5 mM MgCl2, 37 °C
[3] = substrate: Nc1ncnc2c1ncn2[C@@H]1O[C@H](COP(=O)(O)OP(=O)(O)OP(=O)(O)O)[C@@H](O)[C@H]1O; experiment: PK-LDH coupled assay, NADH A340; assay type: biochemical, Thermococcus paralvinellae; settings: isopentenyl phosphate (1) 1 mM, 25 mM Tris pH 7.8, 5 mM MgCl2, 37 °C
[4] = substrate: O=P(O)(O)OCc1ccccc1; experiment: PK-LDH coupled assay, NADH A340; assay type: biochemical, Thermococcus paralvinellae; settings: ATP 1 mM (2 mM in methods), 25 mM Tris pH 7.8, 5 mM MgCl2, 37 °C
[5] = substrate: C=C(C)CCOP(=O)(O)O; experiment: PK-LDH coupled assay, NADH A340; assay type: biochemical, Methanosarcina barkeri; settings: ATP 1 mM (2 mM in methods), 25 mM Tris pH 7.8, 5 mM MgCl2, 37 °C
[6] = substrate: Nc1ncnc2c1ncn2[C@@H]1O[C@H](COP(=O)(O)OP(=O)(O)OP(=O)(O)O)[C@@H](O)[C@H]1O; experiment: PK-LDH coupled assay, NADH A340; assay type: biochemical, Methanosarcina barkeri; settings: isopentenyl phosphate (1) 1 mM, 25 mM Tris pH 7.8, 5 mM MgCl2, 37 °C
[7] = substrate: O=P(O)(O)OCc1ccccc1; experiment: PK-LDH coupled assay, NADH A340; assay type: biochemical, Methanosarcina barkeri; settings: ATP 1 mM (2 mM in methods), 25 mM Tris pH 7.8, 5 mM MgCl2, 37 °C
[8] = substrate: C=C(C)CCOP(=O)(O)O; experiment: PK-LDH coupled assay, NADH A340; assay type: biochemical, Methanohalophilus mahii; settings: ATP 1 mM (2 mM in methods), 25 mM Tris pH 7.8, 5 mM MgCl2, 37 °C
[9] = substrate: Nc1ncnc2c1ncn2[C@@H]1O[C@H](COP(=O)(O)OP(=O)(O)OP(=O)(O)O)[C@@H](O)[C@H]1O; experiment: PK-LDH coupled assay, NADH A340; assay type: biochemical, Methanohalophilus mahii; settings: isopentenyl phosphate (1) 1 mM, 25 mM Tris pH 7.8, 5 mM MgCl2, 37 °C
[10] = substrate: O=P(O)(O)OCc1ccccc1; experiment: PK-LDH coupled assay, NADH A340; assay type: biochemical, Methanohalophilus mahii; settings: ATP 1 mM (2 mM in methods), 25 mM Tris pH 7.8, 5 mM MgCl2, 37 °C
[11] = substrate: C=C(C)CCOP(=O)(O)O; experiment: PK-LDH coupled assay, NADH A340; assay type: biochemical, Candidatus Nitrososphaera gargensis; settings: ATP 1 mM (2 mM in methods), 25 mM Tris pH 7.8, 5 mM MgCl2, 37 °C
Source text: (§1) PK-LDH coupled assay, NADH A340 on CNG

[12] = substrate: Nc1ncnc2c1ncn2[C@@H]1O[C@H](COP(=O)(O)OP(=O)(O)OP(=O)(O)O)[C@@H](O)[C@H]1O; experiment: PK-LDH coupled assay, NADH A340; assay type: biochemical, Candidatus Nitrososphaera gargensis; settings: isopentenyl phosphate (1) 1 mM, 25 mM Tris pH 7.8, 5 mM MgCl2, 37 °C
Source text: as §1

[13] = substrate: O=P(O)(O)OCc1ccccc1; experiment: PK-LDH coupled assay, NADH A340; assay type: biochemical, Candidatus Nitrososphaera gargensis; settings: ATP 1 mM (2 mM in methods), 25 mM Tris pH 7.8, 5 mM MgCl2, 37 °C
Source text: as §1

B1: TCP (Thermococcus paralvinellae) (protein)
chain: MIIIKLGGSVISDKEKEYSFHRHIVEQIAEEIAQFYPDESFILVHGGGSFGHPNAREYKITEGLVGDVDRKRIGFSKTHQAMLKLNDLIIQTFLEKGLPAYSVSSSSIFLLENKEVVYGELEILRKLLELKFIPVLFGDTAIALDKGIDILSGDQIVSYLAKMLKPSKVIFLMDVDGIYDRNPKERDAKLIEELNVEEIRHLLESSESAGIDVTGGIGNKLREALKIAKHSEVYFINGKVKENLGKAIRGEKVGTRLRKLEHPKIS
notes: N-His6 fusion, pET28a NdeI/EcoRI, codon-optimised synthetic gene, E. coli Rosetta2, Ni-NTA
- Km [1]: 70 ± 10 µM
- kcat [1]: 24 s⁻¹
- kcat/Km [1]: 360000 M⁻¹ s⁻¹
- Km [2]: 22 ± 6 µM
- kcat [2]: 0.62 ± 0.03 s⁻¹
- kcat/Km [2]: 28000 M⁻¹ s⁻¹
- Km [3]: 15 ± 3 µM
- kcat [3]: 0.59 ± 0.03 s⁻¹
- kcat/Km [3]: 39000 M⁻¹ s⁻¹
- Km [4]: 69 ± 10 µM
- kcat [4]: 0.039 ± 0.002 s⁻¹
- kcat/Km [4]: 560 M⁻¹ s⁻¹

B2: MSB (Methanosarcina barkeri 3) (protein)
chain: MNVSTEPVILKLGGSVITDKAADQGVVREDSLRRIAKEVSEYRGKMIIVHGAGSFGHTYAKKYQLGKVFDPEGAIVTHESVKKLASRVVDTLNEYGVRAIAVHPMCCTICRNGRIESMYLDNIKLMLENGLVPVLHGDVVMDLELRACVLSGDQIVPYLAKELKITRLGLGSAEDGVLDNDGKTVPEITPKTFEDFKHYIRGSGSTDVTGGMLGKVQELLELSKTSCITSYIFNAGKDDNIYRFLNGEPMGTTISPDKRV
notes: as for B1
- Km [1]: 32 ± 7 µM
- kcat [1]: 10.1 s⁻¹
- kcat/Km [1]: 310000 M⁻¹ s⁻¹
- Km [5]: 27 ± 5 µM
- kcat [5]: 10.3 ± 0.4 s⁻¹
- kcat/Km [5]: 380000 M⁻¹ s⁻¹
- Km [6]: 90 ± 10 µM
- kcat [6]: 9.1 ± 0.4 s⁻¹
- kcat/Km [6]: 100000 M⁻¹ s⁻¹
- Km [7]: 45 ± 8 µM
- kcat [7]: 1.23 ± 0.07 s⁻¹
- kcat/Km [7]: 27000 M⁻¹ s⁻¹

B3: MHM (Methanohalophilus mahii DSM 5219) (protein)
chain: MNEKNSDITILKIGGSVITDKSSNEGIVREKAIIRIAREISFFEGPLIIVHGAGSFGHPQAKRYSLAYKFSAEGSGVTHRSVASLNELFVNALAQRNVNAVGIHPMGCLVAKEGRISKSFLLAIQMMLEKGITPVLHGDVVMDTVKGSSVISGDQIVPYLASKLNAYRIGVGSAEDGVLDEHGHPIPLITPDNFEIASMHIGGSENTDVTGGMLGKVKEMLDMSRQTKVPSYIFNANAGGNVMSFLRGEMIGTAIKDKA
notes: as for B1
- Km [1]: 36 ± 4 µM
- kcat [1]: 4.1 s⁻¹
- kcat/Km [1]: 120000 M⁻¹ s⁻¹
- Km [8]: 50 ± 10 µM
- kcat [8]: 5.2 ± 0.4 s⁻¹
- kcat/Km [8]: 100000 M⁻¹ s⁻¹
- Km [9]: 100 ± 30 µM
- kcat [9]: 6.3 ± 0.3 s⁻¹
- kcat/Km [9]: 63000 M⁻¹ s⁻¹
- Km [10]: 70 ± 10 µM
- kcat [10]: 0.139 ± 0.008 s⁻¹
- kcat/Km [10]: 1900 M⁻¹ s⁻¹

B4: CNG (Candidatus Nitrososphaera gargensis Ga9.2) (protein)
chain: MQKLALIKLGGSVVTFKDKPLAANTGAIDGISRVLAQLSTPAIIVHGGGSFGHYWSVKYDMHTKPAGYDPHGVSVVHESMIALNQIIINSMIRAGLNPYGMPPSVFAAGHKPVAAKIKQIYTMAKSEVMPVTFGDVVHMEGNKYSILSGDALMTMLAKVLRPSRVVFATNVDGIYKDMASRELMREIRVTTGRKKRSIEFSKASGADVTGGMQRKVAEAFKIASRGMDVLMVNGLMPERIAEAVVEGTRLQVGTVVKGSRR
notes: as for B1
- Km [1]: 390 ± 90 µM
- kcat [1]: 0.87 s⁻¹
- kcat/Km [1]: 2200 M⁻¹ s⁻¹
- Km [11]: 61 ± 9 µM
- kcat [11]: 1.12 ± 0.05 s⁻¹
- kcat/Km [11]: 18000 M⁻¹ s⁻¹
- Km [12]: 21 ± 5 µM
- kcat [12]: 0.81 ± 0.06 s⁻¹
- kcat/Km [12]: 39000 M⁻¹ s⁻¹
- Km [13]: 1200 ± 200 µM
- kcat [13]: 0.83 ± 0.07 s⁻¹
- kcat/Km [13]: 700 M⁻¹ s⁻¹
